For data set [1], the target named is T1, RBM39 RRM2 (UniProt Q14498 250-328).
T1 sequence: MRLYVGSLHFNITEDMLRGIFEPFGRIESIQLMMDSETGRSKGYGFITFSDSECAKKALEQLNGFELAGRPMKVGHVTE
The data set is described as follows: NMR titration; ITC: RRM2/RRM12 in 10 mM Na phosphate pH 6.8, 50 mM NaCl, 2 mM DTT; RRM1 in the same at pH 5.5; 40 C (RRM12 with ssSL3 at 35 C); NMR 200 uM protein in the same. As to conditions: protein: recombinant; tags: His tag removed by thrombin.

The target in a further data set is T2, RBM39 RRM2 F259A (UniProt Q14498 250-328, F259A).
T2 sequence: T1 sequence with F10A
The data set is described as follows: ITC; n=1.27; ITC: RRM2/RRM12 in 10 mM Na phosphate pH 6.8, 50 mM NaCl, 2 mM DTT; RRM1 in the same at pH 5.5; 40 C (RRM12 with ssSL3 at 35 C); NMR 200 uM protein in the same. Particulars: protein: recombinant.

The target of data set [2] is T1, RBM39 RRM2. In words: ITC; n=1.18; ITC: RRM2/RRM12 in 10 mM Na phosphate pH 6.8, 50 mM NaCl, 2 mM DTT; RRM1 in the same at pH 5.5; 40 C (RRM12 with ssSL3 at 35 C); NMR 200 uM protein in the same. Particulars: protein: recombinant; tags: His tag removed by thrombin. For orientation: In ITC the heat of successive injections is recorded.
Data set [3] addresses T3, SF3b155 ULM peptide KSRWDETP
T3 construct: ULM (UHM ligand motif) of SF3b155 (SF3B1)
T3 peptide: KSRWDETP
In words: ITC; PEAQ-ITC (Malvern); Buffer G (sodium phosphate 10 mM pH 7.2, NaCl 50 mM, TCEP 0.5 mM); protein 300 μM in the syringe, ligand (peptide) 30 μM in the cell. Particulars: both partners purified.

Substitutions are numbered along the chain they refer to.

For the molecule CUCUUUG (ssRNA) [BS1], the binding result with RBM39 RRM2 [1] is on record as “binds”.
Consider AGCUUUG (ssRNA), for which the Kd in the data set with RBM39 RRM2 F259A was 41 ± 10 µM; with RBM39 RRM2 [2], 9 ± 2 µM.
As for CCUCCCA (ssRNA) [mutBS1], the binding result in the data set with RBM39 RRM2 [1] is “no binding”.

B1: RBM39 RRM3 (domain or fragment)
chain: VQPLATQCFQLSNMFNPQTEEEVGWDTEIKDDVIEECNKHGGVIHIYVDKNSAQGNVYVKCPSIAAAIAAVNALHGRWFAGKMITAAYVPLPTYHNLFPDSMTATQLLVPSRR
modifications: Construct limits not printed (cited paper); 418-530 is the customary RRM3/UHM construct, covering the annotated RRM3 445-508 and the C-terminus
In the case of B1, in data set [3], the dissociation constant Kd amounted to 19 ± 5 µM, the dH is -83.7 kJ/mol and the “stoichiometry N” value came to 0.65.

B2: RBM39 mRRM3 (domain or fragment)
chain: B1 chain with R77A, F79A
modifications: Construct limits not printed (cited paper); same conventional limits as wild-type RRM3
In data set [3], B2 returned an equilibrium dissociation constant (Kd) greater than 100 µM.

Broadly, the Kd is a measure of binding affinity in units of concentration. As usually defined, the stoichiometry N is the number of molecules, sites or subunits per partner or assembly.
